From paper PMC9352680, “A comprehensive thermodynamic model for RNA binding by the Saccharomyces cerevisiae Pumilio protein PUF4” come the findings set out here.

Holding throughout (settings): protein: recombinant; tags: C-terminal SNAP tag, Cy3B-labeled; N-terminal His tag removed with TEV; label: array RNA; single-stranded
Data set [1] concerns the target T1, PUF4 RNA-binding domain (Pumilio homology domain) (Saccharomyces cerevisiae, UniProt P25339 537-888).
T1 sequence: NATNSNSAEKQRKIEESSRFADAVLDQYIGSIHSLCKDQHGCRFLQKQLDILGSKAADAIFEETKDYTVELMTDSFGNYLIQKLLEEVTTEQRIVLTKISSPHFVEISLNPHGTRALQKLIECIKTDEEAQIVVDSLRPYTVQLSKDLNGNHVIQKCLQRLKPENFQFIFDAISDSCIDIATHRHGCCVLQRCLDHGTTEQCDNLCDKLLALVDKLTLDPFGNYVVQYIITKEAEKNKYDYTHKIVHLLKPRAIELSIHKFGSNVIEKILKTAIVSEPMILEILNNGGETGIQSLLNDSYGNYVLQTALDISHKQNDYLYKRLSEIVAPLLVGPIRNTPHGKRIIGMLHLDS
In words: RNA-MaP; ddG 3.533; RNA-MaP: 20 mM Na-HEPES pH 7.4, 0.1% Tween-20, 5% glycerol, 0.1 mg/mL BSA, 2 mM DTT, low salt 0.75 mM MgCl2 + 30 mM KOAc (model data; high salt 2 mM MgCl2 + 100 mM KOAc), 25 C.

Data set [2] has as its target T1, PUF4 RNA-binding domain (Pumilio …). In words: RNA-MaP; ddG 0.243; RNA-MaP: 20 mM Na-HEPES pH 7.4, 0.1% Tween-20, 5% glycerol, 0.1 mg/mL BSA, 2 mM DTT, low salt 0.75 mM MgCl2 + 30 mM KOAc (model data; high salt 2 mM MgCl2 + 100 mM KOAc), 25 C.
For data set [3] the target is unchanged. In words: RNA-MaP; ddG 3.256; RNA-MaP: 20 mM Na-HEPES pH 7.4, 0.1% Tween-20, 5% glycerol, 0.1 mg/mL BSA, 2 mM DTT, low salt 0.75 mM MgCl2 + 30 mM KOAc (model data; high salt 2 mM MgCl2 + 100 mM KOAc), 25 C.
Data set [4] has the same target. In words: RNA-MaP; ddG 1.018; RNA-MaP: 20 mM Na-HEPES pH 7.4, 0.1% Tween-20, 5% glycerol, 0.1 mg/mL BSA, 2 mM DTT, low salt 0.75 mM MgCl2 + 30 mM KOAc (model data; high salt 2 mM MgCl2 + 100 mM KOAc), 25 C.
The target is the same in data set [5]. In words: RNA-MaP; ddG 0.934; RNA-MaP: 20 mM Na-HEPES pH 7.4, 0.1% Tween-20, 5% glycerol, 0.1 mg/mL BSA, 2 mM DTT, low salt 0.75 mM MgCl2 + 30 mM KOAc (model data; high salt 2 mM MgCl2 + 100 mM KOAc), 25 C.
Data set [6] shares this target. In words: RNA-MaP; ddG 3.923; RNA-MaP: 20 mM Na-HEPES pH 7.4, 0.1% Tween-20, 5% glycerol, 0.1 mg/mL BSA, 2 mM DTT, low salt 0.75 mM MgCl2 + 30 mM KOAc (model data; high salt 2 mM MgCl2 + 100 mM KOAc), 25 C.

For the molecule UCUCUUCGUAUAUAUCUCUU (ssRNA) [S1a K3.1 T1C], in data set [1], the Kd was -8.09 ± 0.575 kcal/mol (dG=RTlnKd).

As for UCUCUUUGUAUAUUUCUCUU (ssRNA) [S1a K3.1 A8T], in data set [2], the Kd is -11.4 ± 0.257 kcal/mol (dG=RTlnKd).

On to UCUCUUAGUAUAUAUCUCUU (ssRNA) [S1a K3.1 T1A], for which the Kd in data set [3] is -8.36 ± 0.617 kcal/mol (dG=RTlnKd).

Regarding UCUCUUUGUAUAUGUCUCUU (ssRNA) [S1a K3.1 A8G], the Kd in data set [4] is -10.6 ± 0.24 kcal/mol (dG=RTlnKd).

In the case of UCUCUUUGUAUAUCUCUCUU (ssRNA) [S1a K3.1 A8C], the Kd in data set [5] was -10.7 ± 0.225 kcal/mol (dG=RTlnKd).

For the molecule UCUCUUGGUAUAUAUCUCUU (ssRNA) [S1a K3.1 T1G], the Kd in data set [6] is -7.7 ± 0.635 kcal/mol (dG=RTlnKd).
